Consider 1 substance from publication PMC12316308, “Interactions of substrates and phosphinyl containing inhibitors with bacterial and human zinc proteases” (PLOS One, 2025).

Experiment [1] deals with T1, TLN (Bacillus thermoproteolyticus, UniProt P00800).
T1 sequence (P00800 233-548): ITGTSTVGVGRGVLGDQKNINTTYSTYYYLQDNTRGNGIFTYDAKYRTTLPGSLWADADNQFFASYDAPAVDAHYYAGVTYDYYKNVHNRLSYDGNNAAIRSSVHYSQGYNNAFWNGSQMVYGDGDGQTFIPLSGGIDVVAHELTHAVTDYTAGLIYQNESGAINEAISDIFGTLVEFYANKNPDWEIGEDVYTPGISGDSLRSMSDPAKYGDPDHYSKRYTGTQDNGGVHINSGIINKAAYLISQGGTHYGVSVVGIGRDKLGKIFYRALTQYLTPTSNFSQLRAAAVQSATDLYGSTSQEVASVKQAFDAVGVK
Nature of the experiment: Enzymatic activity against ES001 and ES005. The format is biochemical. Also noted: purchased Calbiochem (San Diego, CA, USA). The note with it: 10 µM substrate, DMSO omitted, n = 4. On the procedure:
(§1) Determination of reaction velocities. The substrate ES001 was used for APMA activated MMP-9 (MMP-9(A)), Mag-Trypsin activated MMP-9 (MMP-9(MT)) and MMP-14, while the substrate ES005 was used for ALN, PLN and TLN. The reaction velocities/initial rates (v) were determined at 37°C, at an excitation wavelength of 320 nm and an emission wavelength of 405 nm with a slit width of 10 nm using either a Perkin Elmer LS 50 Luminescence spectrometer and the FL WinLab Software Package (Perkin Elmer) or a Clario Star micro plate reader (CLARIOstar® BMG LABTECH).
(§2) To compare the activity of these enzymes against ES001 and ES005 assays were conducted using the same assay condition for all enzymes. The differences from the testing of phosphinic compounds described in the Material and Methods section were that DMSO was omitted, and the concentration of both substrates was 10 µM. A Perkin Elmer LS50 Luminescence Spectrometer was used to measure the activity. Reactions were monitor for one minute, and initial reaction velocities were determined from the activity curves. For each enzyme, the reaction with the presumed optimal substrate was performed first at an arbitrary enzyme concentration, followed immediately by the reaction with the alternate substrate using the same enzyme concentration.

Experiment [2] deals with T2, ALN (Staphylococcus aureus, UniProt P81177). The format is biochemical. Also noted: purchased BioCentrum Ltd (Kraków, Poland). On the procedure:
as §1, §2

Experiment [3] concerns the target T1, TLN. The note with it: 1% DMSO; cited from earlier work.
Experiment [4] has as its target T3, PLN (Pseudomonas aeruginosa, UniProt P14756). Conditions: 1% DMSO, less certain due to substrate quenching above 10 µM; cited from earlier work.
The target of another experiment is T4, MMP-9(A) (Homo sapiens, UniProt P14780).
T4 construct: made in house; host or cells: Sf9 and High Five insect cells
As to the kind of experiment: Enzymatic activity against ES001 and ES005. Type of experiment: biochemical. The note with it: 10 µM substrate, DMSO omitted, n = 4. On the procedure: as §1, §2

The target of another experiment is T5, MMP-14 (Homo sapiens, UniProt P50281).
T5 construct: human MT1-MMP/MMP-14 (catalytic domain); purchased Calbiochem (San Diego, CA, USA)
Nature of the experiment: Enzymatic activity against ES001 and ES005. The format is biochemical. The note with it: 10 µM substrate, DMSO omitted, n = 4. On the procedure: as §1, §2

For the next experiment, the target named is T6, MMP-9(MT) (Homo sapiens, UniProt P14780).
T6 construct: made in house; host or cells: Sf9 and High Five insect cells
Nature of the experiment: Enzymatic activity against ES001 and ES005. Type of experiment: biochemical. Conditions: 10 µM substrate, DMSO omitted, n = 4. On the procedure:
as §1, §2

The target in experiment [5] is T3, PLN. The format is biochemical. Details: purchased Calbiochem (San Diego, CA, USA). On the procedure:
as §1, §2

Another experiment addresses T7, thermolysin (TLN) (Bacillus thermoproteolyticus, UniProt P00800).
T7 construct: purchased Calbiochem (San Diego, CA, USA)
As to the kind of experiment: MALDI-TOF MS analysis of ES005 cleavage. The format is biochemical. The note with it: 50 µM ES005, 10 nM TLN, 5 minutes, 37°C. On the procedure: MALDI-TOF MS spectra were recorded for samples containing different enzyme and substrate concentrations at various time points using an Autoflex Speed instrument (Bruker Daltonik GmbH, Leipzig, Germany) equipped with a 355-nm nitrogen laser for desorption and ionization. The ionization matrix, HCCA, was dissolved to 10 mg/mL in a standard solvent (50% MeCN, 47.5% MQ-water, and 2.5% TFA) by vigorous vortexing. Prior to the MALDI run, a main buffer (0.1 M Hepes, pH 7.5, 10 mM CaCl2) was used to dilute TLN to stock concentrations of 1000, 100 and 50 nM, ES005–500 µM, and galardin to 10 µM. All stocks solutions were kept on ice. For the 0 min incubation, 1 µL TLN and 1 µL galardin were preincubated at 37°C in 8 µL of the main buffer for 10 min before adding 1 µL of ES005. For all other time points, 1 µL of ES005 was added to tubes containing 8 µL buffer and 1 µL of TLN at different concentrations, followed by incubation at 37°C. At each timepoint (0, 1, 3, 5, 10, 20, 30, 60, 120 min), 1 µL of galardin was added to stop enzyme activity. After the final incubation, 1 µL aliquots from each timepoint were mixed with an equal volume of HCCA and spotted onto a MALDI plate. […] The resulting mass spectra were analysed using flexAnalysis software (v3.3, Bruker).

In experiment [6] the target is T2, ALN. Conditions: 1% DMSO, less certain due to substrate quenching above 10 µM; cited from earlier work.
Setting [7] is: 10 µM substrate, DMSO omitted, n = 4.

The star is where a group is joined. Dnp = O=[N+]([O-])c1ccc(*)c([N+](=O)[O-])c1; Mca = COc1ccc2c(CC(=O)*)cc(=O)oc2c1

T2 sequence (P81177 209-509): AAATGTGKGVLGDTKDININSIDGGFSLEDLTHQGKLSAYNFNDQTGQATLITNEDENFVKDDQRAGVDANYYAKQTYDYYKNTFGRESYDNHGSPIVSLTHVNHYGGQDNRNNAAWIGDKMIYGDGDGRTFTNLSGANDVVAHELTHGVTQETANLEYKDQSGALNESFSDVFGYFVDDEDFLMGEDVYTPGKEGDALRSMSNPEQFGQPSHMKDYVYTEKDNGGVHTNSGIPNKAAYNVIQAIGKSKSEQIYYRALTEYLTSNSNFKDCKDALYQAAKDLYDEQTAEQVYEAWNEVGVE
T3 sequence (P14756 198-498): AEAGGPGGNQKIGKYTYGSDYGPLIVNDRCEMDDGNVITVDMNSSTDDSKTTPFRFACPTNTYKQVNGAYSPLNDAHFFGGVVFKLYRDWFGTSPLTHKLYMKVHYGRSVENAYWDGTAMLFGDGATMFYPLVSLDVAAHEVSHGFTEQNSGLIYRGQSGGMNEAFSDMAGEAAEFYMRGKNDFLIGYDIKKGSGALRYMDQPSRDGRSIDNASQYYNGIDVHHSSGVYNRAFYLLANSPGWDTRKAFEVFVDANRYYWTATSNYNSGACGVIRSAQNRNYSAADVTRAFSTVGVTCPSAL
T6 sequence (P14780 107-707 limits assumed): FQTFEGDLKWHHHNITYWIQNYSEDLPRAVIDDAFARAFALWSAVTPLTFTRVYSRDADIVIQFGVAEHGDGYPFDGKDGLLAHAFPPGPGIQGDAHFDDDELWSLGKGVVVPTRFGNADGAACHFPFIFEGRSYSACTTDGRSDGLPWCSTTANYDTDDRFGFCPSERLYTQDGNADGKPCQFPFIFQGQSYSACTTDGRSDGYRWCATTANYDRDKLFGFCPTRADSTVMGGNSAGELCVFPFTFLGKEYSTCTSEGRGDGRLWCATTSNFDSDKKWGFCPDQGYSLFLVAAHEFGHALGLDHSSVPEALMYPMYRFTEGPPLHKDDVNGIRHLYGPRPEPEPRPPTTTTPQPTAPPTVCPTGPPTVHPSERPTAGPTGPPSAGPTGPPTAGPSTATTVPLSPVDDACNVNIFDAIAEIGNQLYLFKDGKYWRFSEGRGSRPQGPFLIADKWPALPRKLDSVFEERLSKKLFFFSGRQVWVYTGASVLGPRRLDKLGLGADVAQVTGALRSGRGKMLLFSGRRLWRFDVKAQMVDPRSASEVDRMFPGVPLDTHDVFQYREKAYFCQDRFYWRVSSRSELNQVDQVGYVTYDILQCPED
T4 sequence (P14780 107-707 limits assumed): as above

Usually Km stands for the concentration of substrate that gives half-maximal velocity. “Mca-Arg-Pro-Pro-Gly-Phe-Ser-Ala-Phe-Lys(Dnp)-OH (Mca-RPPGFSAFK(Dnp)-OH; SMILES COc1ccc2c(CC(=O)N[C@@H](CCCNC(=N)N)C(=O)N3CCC[C@H]3C(=O)N3CCC[C@H]3C(=O)NCC(=O)N[C@@H](Cc3ccccc3)C(=O)N[C@@H](CO)C(=O)N[C@@H](C)C(=O)N[C@@H](Cc3ccccc3)C(=O)N[C@@H](CCCCNc3ccc([N+](=O)[O-])cc3[N+](=O)[O-])C(=O)O)cc(=O)oc2c1) [ES005]”: the Enzymatic activity is 326 ± 36 ΔF/min in the experiment with TLN [1]; 354 ± 61 ΔF/min with ALN [2] (setting [7]); 5.1 ± 0.2 ΔF/min with MMP-9(A); 8 ± 2 ΔF/min in the experiment with MMP-14; 18 ± 8 ΔF/min in the experiment with MMP-9(MT); 138 ± 4 ΔF/min with PLN [5] (setting [7]). Moreover, the “higher activity for ES005 than ES001” value with ALN [2] was roughly 5 fold; in the experiment with PLN [5], “approximately 15 fold”. Also, the Km is 6 ± 1 µM with TLN [3], 24 ± 8 µM with PLN [4] and 76 ± 7 µM with ALN [6]. In addition, the “cleavage sites (MALDI-TOF MS)” value with thermolysin (TLN) was “cleaved at three sites: Gly-Phe (m/z 642), Ser-Ala (m/z 876), and Ala-Phe (m/z 947)”.
